From US8933202B2, “AXL antibodies” (U3 Pharma GmbH, priority 2007, dated 2015) come the findings set out here.

The test system of test [1] is NCI/ADR-RES ovarian cancer cells. Description: TUNEL staining, combination with doxorubicin. Particulars: 24 h. The format is cell-based, human. An excerpt:
As rat anti-Axl antibodies of the invention turned out to interfere with Gas6-mediated anti-apoptosis of serum-starved NIH3T3-Axl cl.7 fibroblasts, the question arose, whether antagonistic anti-Axl antibodies would synergize with chemotherapeutic agents in inducing apoptosis, thereby contributing to overcome drug resistance. In this example, NCI/ADR-RES (originally named MCF-7/AdrR) cells—a ovarian cancer cell line (Liscovitch and Ravid, 2007, Cancer Letters, 245, 350-352) displaying a high level of resistance to several agents including doxorubicin (Fairchild et al., 1987, Cancer Research, 47, 5141-5148; Xu et al., 2002, The Journal of Pharmacology and Experimental Therapeutics, 302, 963-971)—were incubated with the antagonistic anti-Axl antibody 11B7 and/or doxorubicin, and apoptosis rates were determined by TUNEL staining. In brief, 3×10^4 NCI/ADR-RES cells in normal growth medium were seeded per well of an 8-chamber culture slide (BD Falcon, cat#354118) which were pre-incubated with the same medium for 1 h at 37° C. The next morning, normal growth medium was removed and cells were washed with and cultured in serum-reduced (0.5% FCS) medium. In the evening, isotypic control antibody 1D5 or the antagonistic anti-Axl antibody 11B7 were added at final concentrations of 10 μg/ml each. In the morning of day 3, doxorubicin at final concentrations of 100 μM, 150 μM, or 200 μM was added, and cells were incubated at 37° C. After 24 h, cells were rinsed once with PBS, fixed with 4% formaldehyde in PBS (pH 7.5) for 20 min at room temperature, air-dried for 5 min, and stored at −20° C. Using the commercially available Fluorescein-FragEL™ kit (Oncogene, cat#QIA39, presently being distributed through Merck-Calbiochem), TUNEL staining was performed according to the supplier's manual instructions (chapter ‘Fluorescein-FragEL™ of cell preparations fixed on slides’, page 10). Applying fluorescence microscopy, cells were analyzed and photos were taken.

Test [2] addresses T1, human AXL-ECD (Homo sapiens, UniProt P30530).
T1 construct: purchased R&D Systems 154-AL
T1 sequence (P30530 26-451 limits assumed): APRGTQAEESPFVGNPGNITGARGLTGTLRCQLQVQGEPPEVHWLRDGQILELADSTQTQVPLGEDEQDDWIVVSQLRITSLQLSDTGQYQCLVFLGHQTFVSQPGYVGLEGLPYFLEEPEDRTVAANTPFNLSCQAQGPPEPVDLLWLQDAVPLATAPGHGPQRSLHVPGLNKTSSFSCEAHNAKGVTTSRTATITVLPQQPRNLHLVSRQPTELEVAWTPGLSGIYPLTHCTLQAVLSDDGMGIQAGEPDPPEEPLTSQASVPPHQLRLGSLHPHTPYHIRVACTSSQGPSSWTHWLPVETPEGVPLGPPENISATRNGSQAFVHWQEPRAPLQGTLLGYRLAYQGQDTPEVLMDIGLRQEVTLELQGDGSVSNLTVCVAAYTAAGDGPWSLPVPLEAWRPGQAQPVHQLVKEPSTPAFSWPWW
Briefly: Competition ELISA on AXL-ECD coated plates. As to conditions: 10 μg/ml unbiotinylated, 0.5 μg/ml biotinylated antibody. The format is binding. The protocol: Therefore binding of biotinylated anti-AXL antibodies to AXL-ECD domain-coated plates preincubated with anti-AXL antibodies was determined in a competition ELISA. […] On day 1, black 96 well Maxi-Sorp plates (Nunc) were coated with 100 μl/well of 1 μg/ml human AXL-ECD (R&D Systems #154-AL) in PBS over night at 4° C. […] After washing 6× with wash buffer (PBS, 0.1% TWEEN-20), 80 μl/well AP-conjugated Streptavidin (Chemicon #SA110) diluted 1:4,000 in blocking buffer were added, incubated for 20 min at room temperature washed again 6× with wash buffer and finally washed once with PBS. For detection, 100 μl/well Attophos substrate solution (Roche #11681982) were added. Using a Victor plate reader (Perkin Elmer), the fluorescence of each well was collected at an excitation wavelength of 430 nm an emission wavelength of 580 nm.
(An ELISA detects its analyte on a solid surface through an enzyme-linked reagent.)

B1: 11B7: antagonistic rat anti-AXL monoclonal antibody, rat IgG1 (antibody, V domains shown)
VL: DIQMTQAPSSLPASLGDRVTITCRASQDIGNYLRWFQQKPGKSPRLMISGATNLAAGVPSRFSGSRSGSDYSLTISSLESEDMADYYCLQSKESPWTFGGGTKLELK
VH: EVQLQESGPGLVKPSQSLSLTCSVTGYSITSNYWGWIRKFPGDKMEWMGYITYSGSTSYNPSLKSRISITRDTSKNQFFLQLNSVTSEDTATYYCAITTFYYWGQGVMVTVSS
In the case of B1, in test [1] (10 μg/ml 11B7 + 100 μM doxorubicin), the “apoptosis (TUNEL staining), co-incubation with 100 μM doxorubicin” value is “No TUNEL staining, and hence no apoptosis”. The “apoptosis (TUNEL staining), co-incubation with 150 μM doxorubicin” value in test [1] (10 μg/ml 11B7 + 150 μM doxorubicin) is on record as “substantial induction of apoptosis”. Besides, the “apoptosis (TUNEL staining), co-incubation with 200 μM doxorubicin” value in test [1] (10 μg/ml 11B7 + 200 μM doxorubicin, compared to control IgG antibody) is “significantly increased apoptosis rates”. Besides, the “competition with antagonistic anti-AXL antibodies for binding to AXL-ECD” value in test [2] is “compete with each other for the same or structurally adjacent epitopes”.
